From article PMC4931181 (The EMBO Journal, 2016)
Changes are numbered by the printed parent chain. Several values for one entry are separate records, joined by “and”; a condition that tells them apart may be missing. Equal values may be shown once.

B1: Saccharomyces cerevisiae Nap1 core domain (residues 75–365) (domain or fragment)
chain: GSLVGQDSGYVGGLPKNVKEKLLSLKTLQSELFEVEKEFQVEMFELENKFLQKYKPIWEQRSRIISGQEQPKPEQIAKGQEIVESLNETELLVDEEEKAQNDSEEEQVKGIPSFWLTALENLPIVCDTITDRDAEVLEYLQDIGLEYLTDGRPGFKLLFRFDSSANPFFTNDILCKTYFYQKELGYSGDFIYDHAEGCEISWKDNAHNVTVDLEMRKQRNKTTKQVRTIEKITPIESFFNFFDPPKIQNEDQDEELEEDLEERLALDYSIGEQLKDKLIPRAVDWFTGAAL
B2: Saccharomyces cerevisiae Nap1 full-length (residues 1–417) (natural protein)
chain: MSDPIRTKPKSSMQIDNAPTPHNTPASVLNPSYLKNGNPVRAQAQEQDDKIGTINEEDILANQPLLLQSIQDRLGSLVGQDSGYVGGLPKNVKEKLLSLKTLQSELFEVEKEFQVEMFELENKFLQKYKPIWEQRSRIISGQEQPKPEQIAKGQEIVESLNETELLVDEEEKAQNDSEEEQVKGIPSFWLTALENLPIVCDTITDRDAEVLEYLQDIGLEYLTDGRPGFKLLFRFDSSANPFFTNDILCKTYFYQKELGYSGDFIYDHAEGCEISWKDNAHNVTVDLEMRKQRNKTTKQVRTIEKITPIESFFNFFDPPKIQNEDQDEELEEDLEERLALDYSIGEQLKDKLIPRAVDWFTGAALEFEFEEDEEEADEDEDEEEDDDHGLEDDDGESAEEQDDFAGRPEQAPECKQS
B3: yNap1cΔ (core 75–365 with in-frame deletion of the β5–β6 region, Δ284–308) (domain or fragment)
chain: GSLVGQDSGYVGGLPKNVKEKLLSLKTLQSELFEVEKEFQVEMFELENKFLQKYKPIWEQRSRIISGQEQPKPEQIAKGQEIVESLNETELLVDEEEKAQNDSEEEQVKGIPSFWLTALENLPIVCDTITDRDAEVLEYLQDIGLEYLTDGRPGFKLLFRFDSSANPFFTNDILCKTYFYQKELGYSGDFIYDHAEGCEISWKDNAHNVIESFFNFFDPPKIQNEDQDEELEEDLEERLALDYSIGEQLKDKLIPRAVDWFTGAAL
B4: yNap1cΔ_G225D (domain or fragment)
chain: B3 chain with G151D

Columns and labels:
[1] = target: Xenopus laevis histone H2B (28–126) (Xenopus laevis, UniProt P02281 28-126); experiment: crystal structure
[2] = target: the molecule itself; experiment: native MS

| Binder | binding result [1] | stoichiometry N [2] | binding result [2] |
| --- | --- | --- | --- |
| B1 | binds | 2 and 4 and 6 |  |
| B2 |  | 2 and 4 and 6 |  |
| B3 |  |  | binds |
| B4 |  | 2 |  |
